Measurements reported in patent US6794144.

How the values were obtained:
[1] = biological target: GST-Nef (HIV-1 NL4-3 Nef containing a T71R change) (HIV-1 NL4-3) [GST: P08515]
[2] = biological target: GST-NefR90 (HIV-1 Nef carrying an F90R mutation) (HIV-1) [GST: P08515]
[3] = biological target: GST-Nef (HIV-1 NL4-3 Nef containing a T71R change) (HIV-1 NL4-3) [GST: P08515]; remark: listed apart in the source
[4] = biological target: GST-NefR90 (HIV-1 Nef carrying an F90R mutation) (HIV-1) [GST: P08515]; remark: listed apart in the source
[5] = biological target: GST-Nef (HIV-1 NL4-3 Nef containing a T71R change) (HIV-1 NL4-3) [GST: P08515]; experiment: competition plate assay: unlabeled GST-SH3 vs biotinylated Hck-SH3 probe (66 nM) on immobilized GST-Nef
[6] = biological target: GST-NefR90 (HIV-1 Nef carrying an F90R mutation) (HIV-1) [GST: P08515]; experiment: estimated from competition by Hck-SH3 and the earlier KD 1.99 µM of Hck-SH3/NefR90
[7] = biological target: GST-Nef (HIV-1 NL4-3 Nef containing a T71R change) (HIV-1 NL4-3) [GST: P08515]; experiment: calculated from competition with Hck-SH3 probe on immobilized Nef, based on KD 250 nM of Hck-SH3/Nef

GST-Hck-SH3 (native Hck SH3 domain, GST fusion protein) (from UniProt P08631 78-138)
inhibition at an equimolar probe:competitor ratio [1]: < 5%
inhibition at an equimolar probe:competitor ratio [2]: < 5%
IC50 [3]: > 850 nM
fold excess over the probe needed for 50% inhibition [3]: > 100 fold
IC50 [4]: > 1100 nM
fold molar excess over the probe needed for 50% inhibition [4]: > 16 fold
ratio of competitor per probe giving 50% inhibition (1:x competitor:probe) [5]: 1

GST-RRT.A1 (Hck-derived RRT-SH3 domain, RT-loop VSWSPD) (from UniProt P08631 62-118) (designed binder)
inhibition at an equimolar probe:competitor ratio [1]: 55%
inhibition at an equimolar probe:competitor ratio [2]: 52%
Kd [6]: < 100 nM
Kd [7]: 7 nM
ratio of competitor per probe giving 50% inhibition (1:x competitor:probe) [5]: 35

GST-RRT.A2 (Hck-derived RRT-SH3 domain, RT-loop FSWSDT) (from UniProt P08631 62-118) (designed binder)
inhibition at an equimolar probe:competitor ratio [1]: 20%
inhibition at an equimolar probe:competitor ratio [2]: 53%
ratio of competitor per probe giving 50% inhibition (1:x competitor:probe) [5]: 19

GST-RRT.A4 (Hck-derived RRT-SH3 domain, RT-loop YSWSDM) (from UniProt P08631 62-118) (designed binder)
inhibition at an equimolar probe:competitor ratio [1]: 34%
inhibition at an equimolar probe:competitor ratio [2]: 44%
ratio of competitor per probe giving 50% inhibition (1:x competitor:probe) [5]: 10

GST-RRT.B1 (Hck-derived RRT-SH3 domain, RT-loop WSPFPS) (from UniProt P08631 62-118) (designed binder)
inhibition at an equimolar probe:competitor ratio [1]: 41%
inhibition at an equimolar probe:competitor ratio [2]: 9%
ratio of competitor per probe giving 50% inhibition (1:x competitor:probe) [5]: 26

GST-RRT.B2 (Hck-derived RRT-SH3 domain, RT-loop DSPFSF) (from UniProt P08631 62-118) (designed binder)
inhibition at an equimolar probe:competitor ratio [1]: 22%
inhibition at an equimolar probe:competitor ratio [2]: 26%
ratio of competitor per probe giving 50% inhibition (1:x competitor:probe) [5]: 22

GST-RRT.B4 (Hck-derived RRT-SH3 domain, RT-loop FSPFDW) (from UniProt P08631 62-118) (designed binder)
inhibition at an equimolar probe:competitor ratio [1]: 41%
inhibition at an equimolar probe:competitor ratio [2]: 37%
ratio of competitor per probe giving 50% inhibition (1:x competitor:probe) [5]: 21

GST-RRT.B6 (Hck-derived RRT-SH3 domain, RT-loop YSPFSW) (from UniProt P08631 62-118) (designed binder)
inhibition at an equimolar probe:competitor ratio [1]: 51%
inhibition at an equimolar probe:competitor ratio [2]: 14%
Kd [7]: 7 nM
ratio of competitor per probe giving 50% inhibition (1:x competitor:probe) [5]: 37

GST-RRT.C1 (Hck-derived RRT-SH3 domain, RT-loop TSPFPW) (from UniProt P08631 62-118) (designed binder)
inhibition at an equimolar probe:competitor ratio [1]: 39%
inhibition at an equimolar probe:competitor ratio [2]: < 5%
Kd [7]: 7 nM
ratio of competitor per probe giving 50% inhibition (1:x competitor:probe) [5]: 31

GST-RRT.C2 (Hck-derived RRT-SH3 domain, RT-loop YSFFPW) (from UniProt P08631 62-118) (designed binder)
inhibition at an equimolar probe:competitor ratio [1]: 20%
inhibition at an equimolar probe:competitor ratio [2]: 13%
ratio of competitor per probe giving 50% inhibition (1:x competitor:probe) [5]: 16

GST-RRT.C3 (Hck-derived RRT-SH3 domain, RT-loop YSDFPW) (from UniProt P08631 62-118) (designed binder)
inhibition at an equimolar probe:competitor ratio [1]: 42%
inhibition at an equimolar probe:competitor ratio [2]: 20%
ratio of competitor per probe giving 50% inhibition (1:x competitor:probe) [5]: 26

GST-RRT.C4 (Hck-derived RRT-SH3 domain, RT-loop DSWFPW) (from UniProt P08631 62-118) (designed binder)
inhibition at an equimolar probe:competitor ratio [1]: 10%
inhibition at an equimolar probe:competitor ratio [2]: 19%
ratio of competitor per probe giving 50% inhibition (1:x competitor:probe) [5]: 14

GST-RRT.D1 (Hck-derived RRT-SH3 domain, RT-loop SSFYSS) (from UniProt P08631 62-118) (designed binder)
inhibition at an equimolar probe:competitor ratio [1]: 45%
inhibition at an equimolar probe:competitor ratio [2]: 17%
ratio of competitor per probe giving 50% inhibition (1:x competitor:probe) [5]: 22

GST-RRT.m1 (Hck-derived RRT-SH3 domain selected on NefR90, RT-loop QGFLDQ) (from UniProt P08631 62-118) (designed binder)
inhibition at an equimolar probe:competitor ratio [1]: < 5%
inhibition at an equimolar probe:competitor ratio [2]: 73%
ratio of competitor per probe giving 50% inhibition (1:x competitor:probe) [5]: 0.8

GST-RRT.m2 (Hck-derived RRT-SH3 domain selected on NefR90, RT-loop NAFLPS) (from UniProt P08631 62-118) (designed binder)
inhibition at an equimolar probe:competitor ratio [1]: < 5%
inhibition at an equimolar probe:competitor ratio [2]: 73%
ratio of competitor per probe giving 50% inhibition (1:x competitor:probe) [5]: 2

GST-RRT.m3 (Hck-derived RRT-SH3 domain selected on NefR90, RT-loop EAWSPL) (from UniProt P08631 62-118) (designed binder)
inhibition at an equimolar probe:competitor ratio [1]: 22%
inhibition at an equimolar probe:competitor ratio [2]: 62%
ratio of competitor per probe giving 50% inhibition (1:x competitor:probe) [5]: 17

GST-RRT.m4 (Hck-derived RRT-SH3 domain selected on NefR90, RT-loop ESYSEW) (from UniProt P08631 62-118) (designed binder)
inhibition at an equimolar probe:competitor ratio [1]: < 5%
inhibition at an equimolar probe:competitor ratio [2]: 46%
